First the molecules themselves.
T1: FcγRIIb extracellular domain with C-terminal His tag (human, UniProt P31994 43-217)
T1 construct: extracellular domain; Expressed in FreeStyle293 cells; used as analyte in Biacore; also called FcgRIIb; 2b; not shown: C-terminal His tag
T1 sequence (looked up): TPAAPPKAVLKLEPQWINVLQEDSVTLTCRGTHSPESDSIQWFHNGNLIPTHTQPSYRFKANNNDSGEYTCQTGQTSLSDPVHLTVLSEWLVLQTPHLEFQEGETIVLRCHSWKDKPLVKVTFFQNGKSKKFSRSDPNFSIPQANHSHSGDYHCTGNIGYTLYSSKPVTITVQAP

B1: GpH7-A5/GpH7-B3 variant S267_14T/GpL16-k0 (He Ab) (antibody, human IgG1, kappa)
heavy 1: not shown
heavy 2: not shown
light: DIVMTQSPLSLPVTPGEPASISCQASESLVHSNRNTYLHWYLQKPGQSPQLLIYKVSNRFSGVPDRFSGSGSGTDFTLKISRVEAEDVGVYYCSQNTHVPPTFGQGTKVEIERTVAAPSVFIFPPSDEQLKSGTASVVCLLNNFYPREAKVQWKVDNALQSGNSQESVTEQDSKDSTYSLSSTLTLSKADYEKHKVYACEVTHQGLSSPVTKSFNRGEC
notes: Substitution in one H chain only; position in EU numbering; also called S267T heterodimerized antibody
B2: GpH7-A5/GpH7-B3 variant S337_09D/GpL16-k0 (He Ab) (antibody, human IgG1, kappa)
heavy 1: not shown
heavy 2: not shown
light: DIVMTQSPLSLPVTPGEPASISCQASESLVHSNRNTYLHWYLQKPGQSPQLLIYKVSNRFSGVPDRFSGSGSGTDFTLKISRVEAEDVGVYYCSQNTHVPPTFGQGTKVEIERTVAAPSVFIFPPSDEQLKSGTASVVCLLNNFYPREAKVQWKVDNALQSGNSQESVTEQDSKDSTYSLSSTLTLSKADYEKHKVYACEVTHQGLSSPVTKSFNRGEC
notes: Substitution in one H chain only; position in EU numbering; also called S337D heterodimerized antibody
B3: GpH7-A5/GpH7-B3 variant S267_10E/GpL16-k0 (He Ab) (antibody, human IgG1, kappa)
heavy 1: not shown
heavy 2: not shown
light: DIVMTQSPLSLPVTPGEPASISCQASESLVHSNRNTYLHWYLQKPGQSPQLLIYKVSNRFSGVPDRFSGSGSGTDFTLKISRVEAEDVGVYYCSQNTHVPPTFGQGTKVEIERTVAAPSVFIFPPSDEQLKSGTASVVCLLNNFYPREAKVQWKVDNALQSGNSQESVTEQDSKDSTYSLSSTLTLSKADYEKHKVYACEVTHQGLSSPVTKSFNRGEC
notes: Substitution in one H chain only; position in EU numbering; also called S267E heterodimerized antibody
B4: GpH7-A5/GpH7-B3 variant S239_07I/GpL16-k0 (He Ab) (antibody, human IgG1, kappa)
heavy 1: not shown
heavy 2: not shown
light: DIVMTQSPLSLPVTPGEPASISCQASESLVHSNRNTYLHWYLQKPGQSPQLLIYKVSNRFSGVPDRFSGSGSGTDFTLKISRVEAEDVGVYYCSQNTHVPPTFGQGTKVEIERTVAAPSVFIFPPSDEQLKSGTASVVCLLNNFYPREAKVQWKVDNALQSGNSQESVTEQDSKDSTYSLSSTLTLSKADYEKHKVYACEVTHQGLSSPVTKSFNRGEC
notes: Substitution in one H chain only; position in EU numbering; also called S239I heterodimerized antibody
B5: GpH7-A5/GpH7-B3 variant P331_04F/GpL16-k0 (He Ab) (antibody, human IgG1, kappa)
heavy 1: not shown
heavy 2: not shown
light: DIVMTQSPLSLPVTPGEPASISCQASESLVHSNRNTYLHWYLQKPGQSPQLLIYKVSNRFSGVPDRFSGSGSGTDFTLKISRVEAEDVGVYYCSQNTHVPPTFGQGTKVEIERTVAAPSVFIFPPSDEQLKSGTASVVCLLNNFYPREAKVQWKVDNALQSGNSQESVTEQDSKDSTYSLSSTLTLSKADYEKHKVYACEVTHQGLSSPVTKSFNRGEC
notes: Substitution in one H chain only; position in EU numbering; also called P331F heterodimerized antibody
B6: GpH7-A5/GpH7-B3 variant S267_03V/GpL16-k0 (He Ab) (antibody, human IgG1, kappa)
heavy 1: not shown
heavy 2: not shown
light: DIVMTQSPLSLPVTPGEPASISCQASESLVHSNRNTYLHWYLQKPGQSPQLLIYKVSNRFSGVPDRFSGSGSGTDFTLKISRVEAEDVGVYYCSQNTHVPPTFGQGTKVEIERTVAAPSVFIFPPSDEQLKSGTASVVCLLNNFYPREAKVQWKVDNALQSGNSQESVTEQDSKDSTYSLSSTLTLSKADYEKHKVYACEVTHQGLSSPVTKSFNRGEC
notes: Substitution in one H chain only; position in EU numbering; also called S267V heterodimerized antibody
B7: GpH7-A5/GpH7-B3 variant T335_09D/GpL16-k0 (He Ab) (antibody, human IgG1, kappa)
heavy 1: not shown
heavy 2: not shown
light: DIVMTQSPLSLPVTPGEPASISCQASESLVHSNRNTYLHWYLQKPGQSPQLLIYKVSNRFSGVPDRFSGSGSGTDFTLKISRVEAEDVGVYYCSQNTHVPPTFGQGTKVEIERTVAAPSVFIFPPSDEQLKSGTASVVCLLNNFYPREAKVQWKVDNALQSGNSQESVTEQDSKDSTYSLSSTLTLSKADYEKHKVYACEVTHQGLSSPVTKSFNRGEC
notes: Substitution in one H chain only; position in EU numbering; also called T335D heterodimerized antibody
B8: GpH7-A5/GpH7-B3 variant S298_08L/GpL16-k0 (He Ab) (antibody, human IgG1, kappa)
heavy 1: not shown
heavy 2: not shown
light: DIVMTQSPLSLPVTPGEPASISCQASESLVHSNRNTYLHWYLQKPGQSPQLLIYKVSNRFSGVPDRFSGSGSGTDFTLKISRVEAEDVGVYYCSQNTHVPPTFGQGTKVEIERTVAAPSVFIFPPSDEQLKSGTASVVCLLNNFYPREAKVQWKVDNALQSGNSQESVTEQDSKDSTYSLSSTLTLSKADYEKHKVYACEVTHQGLSSPVTKSFNRGEC
notes: Substitution in one H chain only; position in EU numbering; also called S298L heterodimerized antibody
B9: GpH7-A5/GpH7-B3 variant S337_14T/GpL16-k0 (He Ab) (antibody, human IgG1, kappa)
heavy 1: not shown
heavy 2: not shown
light: DIVMTQSPLSLPVTPGEPASISCQASESLVHSNRNTYLHWYLQKPGQSPQLLIYKVSNRFSGVPDRFSGSGSGTDFTLKISRVEAEDVGVYYCSQNTHVPPTFGQGTKVEIERTVAAPSVFIFPPSDEQLKSGTASVVCLLNNFYPREAKVQWKVDNALQSGNSQESVTEQDSKDSTYSLSSTLTLSKADYEKHKVYACEVTHQGLSSPVTKSFNRGEC
notes: Substitution in one H chain only; position in EU numbering; also called S337T heterodimerized antibody
B10: GpH7-A5/GpH7-B3 variant S239_01G/GpL16-k0 (He Ab) (antibody, human IgG1, kappa)
heavy 1: not shown
heavy 2: not shown
light: DIVMTQSPLSLPVTPGEPASISCQASESLVHSNRNTYLHWYLQKPGQSPQLLIYKVSNRFSGVPDRFSGSGSGTDFTLKISRVEAEDVGVYYCSQNTHVPPTFGQGTKVEIERTVAAPSVFIFPPSDEQLKSGTASVVCLLNNFYPREAKVQWKVDNALQSGNSQESVTEQDSKDSTYSLSSTLTLSKADYEKHKVYACEVTHQGLSSPVTKSFNRGEC
notes: Substitution in one H chain only; position in EU numbering; also called S239G heterodimerized antibody
B11: GpH7-A5/GpH7-B3 variant S337_10E/GpL16-k0 (He Ab) (antibody, human IgG1, kappa)
heavy 1: not shown
heavy 2: not shown
light: DIVMTQSPLSLPVTPGEPASISCQASESLVHSNRNTYLHWYLQKPGQSPQLLIYKVSNRFSGVPDRFSGSGSGTDFTLKISRVEAEDVGVYYCSQNTHVPPTFGQGTKVEIERTVAAPSVFIFPPSDEQLKSGTASVVCLLNNFYPREAKVQWKVDNALQSGNSQESVTEQDSKDSTYSLSSTLTLSKADYEKHKVYACEVTHQGLSSPVTKSFNRGEC
notes: Substitution in one H chain only; position in EU numbering; also called S337E heterodimerized antibody

The experiment deals with T1, FcγRIIb extracellular domain with …. Description: SPR (Biacore), antibody captured on antigen-peptide chip, FcgRIIb as analyte; binding relative to GpH7-A5/GpH7-B3/GpL16-k0 (HeCon Ab) = 100. Background: Surface plasmon resonance follows binding to a sensor surface in real time, without labels.
As for B1, the He/Con_2b was 104 % of control.

On to B2, for which the He/Con_2b is 114 % of control.

For B3, the He/Con_2b was 379 % of control.

On to B4, for which the He/Con_2b was 107 % of control.

Consider B5, for which the He/Con_2b is 110 % of control.

Regarding B6, the He/Con_2b was 192 % of control.

With B7, the He/Con_2b was 108 % of control.

Take B8: the He/Con_2b was 108 % of control.

Regarding B9, the He/Con_2b was 105 % of control.

Take B10: the He/Con_2b is 144 % of control.

For the molecule B11, the He/Con_2b is 107 % of control.

Source of the values: patent US20180155451A1 (published 2018).
